Laboratory results: patent US20200131257A1 (YALE UNIVERSITY, published 2020)
Substitutions are numbered along the chain they refer to. In names and notes the source's numbering stands. Several values for one entry are separate records, joined by “and”; a condition that tells them apart may be missing. Identical values can stand only once. Like-named read-outs stand apart in the source and are kept apart here. No end group written: not given here.

Experiments:
[1] = biological target: extracellular domain of human β-Klotho (sKLB) (human) (UniProt Q86Z14); test: MST competition; GST-FGF21CT variant titrated into a constant sKLB/fl-FGF21 mixture
[2] = biological target: T1, extracellular domain of human β-Klotho (sKLB) (human, UniProt Q86Z14 53-983); test: MST; 35 nM fluorescently labeled FGF21, sKLB titrated 0.03-1000 nM
T1 construct: Made in HEK293-EBNA cells; also called WT sKLB; not shown: remnant of the TEV protease cleavage site / four-Gly linker left after the Fc tag was cut off
T1 sequence: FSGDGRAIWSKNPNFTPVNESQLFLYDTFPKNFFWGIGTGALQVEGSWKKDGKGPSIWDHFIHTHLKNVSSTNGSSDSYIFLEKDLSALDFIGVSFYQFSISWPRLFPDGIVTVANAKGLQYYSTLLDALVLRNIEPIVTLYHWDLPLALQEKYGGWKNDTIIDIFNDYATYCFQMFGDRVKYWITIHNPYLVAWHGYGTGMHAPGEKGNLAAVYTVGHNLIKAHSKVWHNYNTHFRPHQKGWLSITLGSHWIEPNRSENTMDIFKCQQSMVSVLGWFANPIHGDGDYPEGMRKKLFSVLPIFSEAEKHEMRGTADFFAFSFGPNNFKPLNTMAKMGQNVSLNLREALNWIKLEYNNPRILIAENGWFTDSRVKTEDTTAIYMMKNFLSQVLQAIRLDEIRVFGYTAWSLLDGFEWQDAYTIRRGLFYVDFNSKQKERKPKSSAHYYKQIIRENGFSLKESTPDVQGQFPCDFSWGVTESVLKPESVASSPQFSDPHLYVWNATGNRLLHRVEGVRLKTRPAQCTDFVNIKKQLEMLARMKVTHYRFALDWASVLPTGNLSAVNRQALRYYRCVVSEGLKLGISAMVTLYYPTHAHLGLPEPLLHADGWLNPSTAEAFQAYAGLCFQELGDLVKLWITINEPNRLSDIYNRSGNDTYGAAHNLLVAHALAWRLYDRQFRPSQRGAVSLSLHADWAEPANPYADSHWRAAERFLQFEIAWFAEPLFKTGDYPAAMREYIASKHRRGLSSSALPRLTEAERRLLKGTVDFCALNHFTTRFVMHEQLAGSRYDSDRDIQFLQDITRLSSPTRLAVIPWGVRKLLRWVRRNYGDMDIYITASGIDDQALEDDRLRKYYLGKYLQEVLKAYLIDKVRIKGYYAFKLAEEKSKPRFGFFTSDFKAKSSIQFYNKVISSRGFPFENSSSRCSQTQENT
Method: (§1) All MST measurements were performed using the Monolith NT.115Pico instrument (NanoTemper Technologies) with Monolith NT.115 MST Premium Coated Capillaries. Purified FGF21 was fluorescently labeled using the Monolith Protein Labeling Kit RED-NHS (NanoTemper Technologies) according to the instruction provided by the manufacturer. […] The thermophoretic movements of fl-FGF21 in each samples were monitored (LED 20%, IR laser 20%,) and the normalized fluorescence intensities (FNorm), defined as Fₕₒₜ/Fcold (where Fcold and Fₕₒₜ refer to the fluorescence intensities averaged over […] before IR laser is on and 29 s after IR laser is on, respectively), for each samples were plotted against the concentrations of sKLB. For the competition assays, the thermophoresis of fl-FGF21 was measured for samples where the concentration of fl-FGF21 and sKLB mixture was kept constant with the concentrations of GST-FGF21CT varying from 2.1 nM to 35000 nM. All the data were analyzed with the MO Affinity Analysis software (NanoTemper Technologies) provided by the manufacturer.
The affinity of FGF21 for sKLB was measured using MicroScale Thermophoresis or MST (Seidel et al., 2013, methods 59:301-315), where the thermophoretic movement of fluorescently-labeled FGF21 (fl-FGF21) in solution is monitored upon sKLB binding.

β-Klotho lacking D2 = biological target: T2, β-Klotho lacking D2 (human, UniProt Q86Z14 53-507); test: SPR and/or MST
T2 sequence: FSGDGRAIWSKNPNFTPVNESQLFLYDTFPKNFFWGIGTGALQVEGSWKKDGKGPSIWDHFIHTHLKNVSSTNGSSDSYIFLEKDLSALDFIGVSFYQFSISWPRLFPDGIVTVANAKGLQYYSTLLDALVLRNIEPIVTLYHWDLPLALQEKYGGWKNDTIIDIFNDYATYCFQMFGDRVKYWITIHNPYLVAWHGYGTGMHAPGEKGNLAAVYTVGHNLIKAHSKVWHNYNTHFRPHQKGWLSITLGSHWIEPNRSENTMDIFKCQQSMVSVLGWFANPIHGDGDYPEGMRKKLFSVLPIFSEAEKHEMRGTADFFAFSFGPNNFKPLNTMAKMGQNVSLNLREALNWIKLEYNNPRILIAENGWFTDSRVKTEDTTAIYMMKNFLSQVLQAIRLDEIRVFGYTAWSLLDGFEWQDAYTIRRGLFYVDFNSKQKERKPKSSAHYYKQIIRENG

[3] = biological target: T3, full-length human β-Klotho (KLB), C-terminal HA-tagged, on L6 cells (human, UniProt Q86Z14 53-1044); test: cell-based or functional assay
T3 sequence: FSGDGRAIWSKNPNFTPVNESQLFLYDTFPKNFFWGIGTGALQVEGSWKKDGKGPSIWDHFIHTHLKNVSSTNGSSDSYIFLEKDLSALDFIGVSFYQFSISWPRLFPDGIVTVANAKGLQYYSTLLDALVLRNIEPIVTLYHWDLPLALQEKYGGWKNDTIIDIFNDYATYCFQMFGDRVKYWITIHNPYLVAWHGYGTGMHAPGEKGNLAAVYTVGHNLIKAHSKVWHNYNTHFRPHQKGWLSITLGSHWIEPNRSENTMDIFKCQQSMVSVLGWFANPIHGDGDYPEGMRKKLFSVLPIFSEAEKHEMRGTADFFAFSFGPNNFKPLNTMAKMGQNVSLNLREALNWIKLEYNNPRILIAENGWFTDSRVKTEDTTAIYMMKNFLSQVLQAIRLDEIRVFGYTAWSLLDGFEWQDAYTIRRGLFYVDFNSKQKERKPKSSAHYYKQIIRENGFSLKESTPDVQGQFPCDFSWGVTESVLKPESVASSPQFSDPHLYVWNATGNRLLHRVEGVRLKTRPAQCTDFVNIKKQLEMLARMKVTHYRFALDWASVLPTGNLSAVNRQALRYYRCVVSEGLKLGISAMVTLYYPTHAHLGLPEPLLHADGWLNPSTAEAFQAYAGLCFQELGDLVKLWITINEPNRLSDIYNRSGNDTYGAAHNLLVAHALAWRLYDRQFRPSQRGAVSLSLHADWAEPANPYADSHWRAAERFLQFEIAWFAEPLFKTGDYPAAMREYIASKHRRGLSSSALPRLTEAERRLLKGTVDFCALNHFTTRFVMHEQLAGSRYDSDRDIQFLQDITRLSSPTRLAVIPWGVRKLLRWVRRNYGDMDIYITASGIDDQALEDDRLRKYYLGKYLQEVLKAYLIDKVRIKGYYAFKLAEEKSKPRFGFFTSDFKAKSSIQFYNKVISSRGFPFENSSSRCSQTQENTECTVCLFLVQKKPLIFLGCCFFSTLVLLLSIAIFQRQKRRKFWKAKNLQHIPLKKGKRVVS

[4] = biological target: T1, extracellular domain of human β-Klotho …; test: MST
Method: The thermophoretic movements of fl-FGF21 in each samples were monitored (LED 20%, IR laser 20%,) and the normalized fluorescence intensities (FNorm), defined as Fₕₒₜ/Fcold (where Fcold and Fₕₒₜ refer to the fluorescence intensities averaged over […] before IR laser is on and 29 s after IR laser is on, respectively), for each samples were plotted against the concentrations of sKLB. For the competition assays, the thermophoresis of fl-FGF21 was measured for samples where the concentration of fl-FGF21 and sKLB mixture was kept constant with the concentrations of GST-FGF21CT varying from 2.1 nM to 35000 nM. All the data were analyzed with the MO Affinity Analysis software (NanoTemper Technologies) provided by the manufacturer.
As endocrine FGFs play important roles in the control of metabolic processes, a variety of approaches have been utilized to develop novel therapeutics that retain (and exceed in potency) the beneficial stimulatory responses of FGF19 and or FGF21 while minimizing the side effects caused by these two hormones. […] In certain non-limiting embodiments, potency of FGF21 can be enhanced by introducing mutations into its C-terminal tail that strengthen interactions with β-Klotho. An L194F mutation was introduced to increase hydrophobic interactions with neighboring amino acids in site 1 of β-Klotho. […]

[5] = biological target: T1, extracellular domain of human β-Klotho …; test: MST competition; GST-FGF21CT titrated into a constant sKLB/fl-FGF21 mixture
Method: as §1
(§2) To measure binding of the C-terminal fragment of FGF21 (FGF21CT) to sKLB, an MST-based competition assay was used, in which GST-fused FGF21CT (GST-FGF21CT) was titrated into a constant sKLB/fl-FGF21 mixture (FIG. 6C).

[6] = biological target: T1, extracellular domain of human β-Klotho …; test: MST competition: GST-FGF21CT titrated into a constant mixture of sKLB and fluorescently labelled FGF21 (competitor: fl-FGF21)
Method: as §1, §2

[7] = biological target: T1, extracellular domain of human β-Klotho …; test: as above; remark: listed apart in the source
Method: as §1, §2

[8] = biological target: T1, extracellular domain of human β-Klotho …; test: SPR; GST-FGF21CT immobilized on a sensor chip using anti-GST, sKLB in solution
[9] = biological target: T1, extracellular domain of human β-Klotho …; test: MST; fluorescently labeled FGFR1cD2D3
[10] = biological target: T1, extracellular domain of human β-Klotho …; test: quantitative binding studies, method not given
[11] = biological target: T1, extracellular domain of human β-Klotho …; test: SPR and/or MST

Molecule: GST-FGF21CT S204A (from UniProt Q9NSA1 169-209)
- IC50 [1]: 5990 nM

Molecule: GST-FGF21CT D192A (from UniProt Q9NSA1 169-209)
- IC50 [1]: 15900 nM

Molecule: GST-FGF21CT Y207A (from UniProt Q9NSA1 169-209)
- IC50 [1]: 6630 nM

Molecule: GST-FGF21CT S206A (from UniProt Q9NSA1 169-209)
- IC50 [1]: 5560 nM

Molecule: GST-FGF21CT P193A (from UniProt Q9NSA1 169-209)
- IC50 [1]: 7160 nM

B1: recombinant human FGF21 (amino acids 29-209 with L126R, P199G and A208E, N-terminal His6 tag) (ligand)
chain: HPIPDSSPLLQFGGQVRQRYLYTDDAQQTEAHLEIREDGTVGGAADQSPESLLQLKALKPGVIQILGVKTSRFLCQRPDGALYGSLHFDPEACSFRERLLEDGYNVYQSEAHGLPLHLPGNKSPHRDPAPRGPARFLPLPGLPPALPEPPGILAPQPPDVGSSDPLSMVGGSQGRSPSYES
modifications: fluorescently labeled with Monolith Protein Labeling Kit RED-NHS (fl-FGF21) in the MST assays
notes: Expressed in E. coli; also called fl-FGF21; wild-type FGF21; not shown: N-terminal His6 tag from the pET28a vector
- Kd [2]: 43.5 nM
- binding result (β-Klotho lacking D2): no binding

B2: R203W/L194F-mutated FGF21 (FGF21WF) (ligand)
chain: B1 chain with R98L, L166F, G171P, R175W, E180A
notes: also called FGF21 carrying a double L194F/R203W mutations
- stimulation of FGFR1c tyrosine phosphorylation in L6 cells coexpressing β-Klotho and FGFR1c [3]: ~10 fold
- Kd [4]: 3.4 nM
- fold tighter binding than wild-type FGF21 [4]: > 10 fold

B3: GST-fused FGF21CT (GST-FGF21CT), wild type (other)
chain: GLPPALPEPPGILAPQPPDVGSSDPLSMVGPSQGRSPSYAS
modifications: not fully specified (N-terminus); also: fused to GST tag, letters not given here
notes: also called WT; not shown: glutathione S-transferase tag and linker encoded by the pGEX-4T-1 vector (GE Healthcare)
- IC50 [5]: 704 nM
- IC50 (read off the curve) [6]: ~700 nM
- IC50 (read off the curve) [7]: ~700 nM
- Kd [8]: 253 nM

B4: FGFR1cD2D3 (ligand binding region of FGFR1c) (receptor, UniProt P11362 142-365, looked up)
chain: DNTKPNRMPVAPYWTSPEKMEKKLHAVPAAKTVKFKCPSSGTPNPTLRWLKNGKEFKPDHRIGGYKVRYATWSIIMDSVVPSDKGNYTCIVENEYGSINHTYQLDVVERSPHRPILQAGLPANKTVALGSNVEFMCKVYSDPQPHIQWLKHIEVNGSKIGPDNLPYVQILKTAGVNTTDKEMEVLHLRNVSFEDAGEYTCLAGNSIGLSHHSAWLTVLEALEER
modifications: fluorescently labeled in the MST assay
notes: domain: D2D3; the c splice form of FGFR1; also called FGFR1cD2D3 extracellular region
- Kd [9]: 940 nM and ~1000 nM

Molecule: LPEPPGILAPQPPDVGSSDPLSMVGGSQGRSPSYES (also called FGF21CT peptide) [FGF21CT synthetic peptide (C-terminal region of FGF21, residues 174-209 with P199G and A208E)]
- Kd [10]: 43 nM

B5: FGF21 lacking the 10 C-terminal amino acids (ligand)
chain: HPIPDSSPLLQFGGQVRQRYLYTDDAQQTEAHLEIREDGTVGGAADQSPESLLQLKALKPGVIQILGVKTSRFLCQRPDGALYGSLHFDPEACSFRELLLEDGYNVYQSEAHGLPLHLPGNKSPHRDPAPRGPARFLPLPGLPPALPEPPGILAPQPPDVGSSDPLSMVGP
- binding result [11]: no binding
